From the DeepSol protein solubility set

Experiment: soluble on expression in E. coli; label from the status in PepcDB or PDB records
With “MYLHGTSRINGQGHLEIGGCDTTQLAKQYGTPLYVYDEGSIRGKCRAFHRAFKESGFSYQVAYASKAFLCMEMCRVAREENMSLDVVSGGELYTALQAGFPASRIHFHGNNKTEEEIVMALQANIGCFVVDNFFELEVLHDLAMQHGKFVNILIRVTPGVEAHTHEYITTGQDDSKFGFGVSNGQAMQAIGLALQKSNYNVLGIHSHIGSQIFETAGFVRAIEVLRQFLEEVREQTNYVVKVLNVGGGFGIRYTESDTPLTLETYVRAVTSAVREQFTVCEYPLPEIWIEPGRSIVGDAGTTIYTVGSVKDIPGIRKYVSVDGGMTDNLRPALYNARYEAMLANRANDENEELVSIAGKCCESGDMLIWDIHLPKVAASDLLAVSCTGAYGYSMANNYNRIRRPAVVFAKGGTSQVVVERETYENIIGNDRIRIKELV” the “soluble on expression in E. coli” value was “not soluble”. In the case of “SANKGQQPPYLHLAELTASQFLDIWKHFDADGNGYIEGKELDNFFSQLEIARRGAGVDPSNAAFKGRMTEFMQKFDKNKDGRIEMSELAQILPTEENFLLCFRQFVGSSTEFMAAWRKYDTDRSGFIEANELKGFLSDLLKKANRHYDDQKLQEYTQTILKMFDLNGDGKLGLSEMARLLPVQENFLLKFQGVRLSAEQFNAIFTYYDKDGNGYIDEQELDALLKDLYEKNNKEVDSKSLTGYKQSIMALSDGGKLYRSELEIVLCRDPML”, the “soluble on expression in E. coli” value is reported as “soluble”. In the case of “INLSTLPEHLTYLVRSSRVLQELHESEAQNRALLNAIPDMMLHVCREGTILDFRAGNGCAYAAFGGNLRGRTIADLLPPGAAAQFMAQVGHALATGTMMVCEYELEGPGGLNTHEARIVANG”, the “soluble on expression in E. coli” value is reported as “not soluble”. For “SPEWPPCLSVAPALVITMAAGKGAPLSPSAENRWRLSEPELGRGCKPVLLEKTNRLGPEAAVGRAGRDVGSAELALLVAPGKPRPGKPLPPKTRGEQRQSAFTELPRMKDRQVDAQAQEREHDDPTGQPGAPQLTQNIPRGPAGSKVFSVWPSGARSEQRSAFSKPTKRPAERPELTSVFPAGESADALGELSGLLNTTDLACWGRLSTPKLLVGDLWNLQALPQNAPLCSTFLGAPTLWLEHTQAQVPPPSSSSTTSWALLPPTLTSLGLSTQNWCAKCNLSFRLTSDLVFHMRSHHKKEHAGPDPHSQKRREEALACPVCQEHFRERHHLSRHMTSHS”, the “soluble on expression in E. coli” value was “soluble”. In the case of “MLKTLAVANYRSINKLVIPLGRLNLVTGANGSGKSNLYRALRLLAETAQGGVVNALAKEGGLESTYWAGPEQISRRMSQGEVPIQGGPRKAARRLQLGFAGEDFGYAISLGLPDSSGHFMLPGHSSPIASRFTLDPWIKRESIWGGPLYRSASALVDRQGPMIRARAGRQWEVLAQHTSSGDSLFDRVGNLSSSPEVLHLREQIRGWRFYDHLRTDSQAPARRPQLGTRTPVLHHDGRDLAAALQTIIEVGDQQALHETISDAFPESRLEIDAVPGGLFGVQFYQEGLLRPLSAAELSDGTLRYLLLVAALLTPRPPTLMVLNEPETSLHPDLLPALARLIIRASQQCQVWVVSHARRLIAALQQDPECNCIVLEKQLGQTGIVGQRMLDEPAWNWPDLEHHHHHH”, the “soluble on expression in E. coli” value is reported as “not soluble”. For “MNFHVMLTSSHETSFNFVVLLRANSKMKQQRNACRSCRLKECIKVGMNPRAVQGDIDTASTSSASPNLVSVEMHPYTNFREVECQTEVSTISSHPTSPSTLPFVSSGSSICSVSSSCSSVSTVYSNCLAMLPPNPSLPKYDYLLASLSRIFERVDEHAPEPLPNTYSFEHAFYNPHLICNRTKLTPTGERIATLPEVLQDFRRIFVLFTDVLSILPEFSRLDESDRMVLAKSRFSFFYWWLTCCWTAKVGCPGVCYANGAYHPSDKRQQAFPDVKGVTELSVETVSKPLANINITDAEMLVGSVFAIFYEYPLPPKVSYASTHILNEARDLYTQCMITVSPYSQLEAKSASRLAEISLIFSSITNLKYLTSDNIELSDVLHVMEVDQLITEAFDVHRPME”, the “soluble on expression in E. coli” value was “not soluble”. For “MSLKSHVRSFKTYIRDEIIKKGGWVNAHAHADRAFTMTPEKIGIYHSSNLQQKWDLVDEVKRTSSVDDYYARFCQSIELMISQGVTAFGTFVDIDPICEDRAIIAAHKAREVYKHDIILKFANQTLKGVIEPTARKWFDIGAEMVDMIGGLPYRDELDYGRGLEAMDILLDKAKSLGIMCHVHVDQFNNPSEKETEQLCDKTIEHGMEGRVVGIHGISIGSHSKEYRYKLYEKMRKAKMMMIACPMAWIDSNRKEDLMPFHNALTPADEMIPEGITVALGTDNICDYMVPLCEGDLWQELSLLAAGCRFPHLDEMVNIASINGRKVLGLELIEGHHHHHH”, the “soluble on expression in E. coli” value was “soluble”. With “GMSVKVSVDDIDGITEVLNVYMNAAESGTGEEMSAAFHKDATIFGYVGDKLAFNGPIKDLYDWHNSNGPAKNVQSRITNIDIVGTVAHARVEAENWTNFKFSDLFLLLKLDGKWTIVNKVFHLHA” the “soluble on expression in E. coli” value was “soluble”. With “MFSKVNNQKMLEDCFYIRKKVFVEEQGVPEESEIDEYESESIHLIGYDNGQPVATARIRPINETTVKIERVAVMKSHRGQGMGRMLMQAVESLAKDEGFYVATMNAQCHAIPFYESLNFKMRGNIFLEEGIEHIEMTKKLTSLN” the “soluble on expression in E. coli” value was “not soluble”. For “GSHMNLKEQLCFSLYNAQRQVNRYYSNKVFKKYNLTYPQFLVLTILWDESPVNVKKVVTELALDTGTVSPLLKRMEQVDLIKRERSEVDQREVFIHLTDKSETIRPELSNASDKVASASSLSQDEVKELNRLLGKVIHAFDE”, the “soluble on expression in E. coli” value was “soluble”. In the case of “MHHHHHHSSGVDLGTENLYFQSMWSVRPSDMAKKTFNPIRAIVDNMKVKPNPNKTMISLSIGDPTVFGNLPTDPEVTQAMKDALDSGKYNGYAPSIGFLSSREEIASYYHCPEAPLEAKDVILTSGCSQAIDLCLAVLANPGQNILVPRPGFSLYKTLAESMGIEVKLYNLLPEKSWEIDLKQLEYLIDEKTACLIVNNPSNPCGSVFSKRHLQKILAVAARQCVPILADEIYGDMVFSDCKYEPLATLSTDVPILSCGGLAKRWLVPGWRLGWILIHDRRDIFGNEIRDGLVKLSQRILGPCTIVQGALKSILCRTPGEFYHNTLSFLKSNADLCYGALAAIPGLRPVRPSGAMYLMVGIEMEHFPEFENDVEFTERLVAEQSVHCLPATCFEYPNFIRVVITVPEVMMLEACSRIQEFCEQHYHC”, the “soluble on expression in E. coli” value is reported as “soluble”. In the case of “MGSDKIHHHHHHMRAKELQDWFPEARISDQPVEKEGYLTLPLASQQWILLEEAGLSEREKQLVALLTQQEQARSLNPWYSYLVEGKGQAPQVFKKIQLVYCHLSYFQQENLASWLDMMRTLFPNCQTVLQVGAQDYVFVLQQDKYTSVRDILSDTIEAVEYDFGLRLSIMLGQVWSQTGHQALSDLIKAERDLFKTWWRQGHQGVHTFSQLYLWSMGERLVDLKPIKECLHQMILDQDQIQEIILSLWENSAVLTKTAQQLYLHRNSLQYKIDKWEELTGLQLKELTDLTLCYQLILGSLSTIVGL”, the “soluble on expression in E. coli” value is reported as “not soluble”. With “GSMSLPPIRLPSPYGSDRLVQLAARLRPALCDTLITVGSQEFPAHSLVLAGVSQQLGRRGQWALGEGISPSTFAQLLNFVYGESVELQPGELRPLQEAARALGVQSLEEACWRARGDRA” the “soluble on expression in E. coli” value was “soluble”. With “MSLNVDPNITKYMIKAKIVTDGVVEKPDVVGAIFGQTEGLLGDELDLRDLQKSGKIGRIEVEIDTKKGRTEGYVLIPSGLDQVESSILAAALETIDRIGPCKAKVEIESIEDVRINKRDRVIKRAEELYRKMGENGKSLSESIVQTVREEVEKKEIISYGEEHLPAGPAIADSDSIIVVEGRNDVLNLLRYGIKNTIAVQGTSVPKTVKELSKSRTVTLFVDGDHGGDLIIKEMLQVADVDFIARAPPGTEVEELTYKQIIKALKYKTPVEQYLETHGMIEELKEWSSRNTKELEERQGNELKNERPEKINENEESEKNVELKEGSVQKLETVPEFDPSSPESIKFKLKQLYESRELELFDGQSSVGKFPVSDAIEKIESMHGDLLITGGIISQRLLDIAYNIGVKAIYGFKIGNITKKPDDIKVVAWDHIEGHHHHHH” the “soluble on expression in E. coli” value was “soluble”. For “MYPLNIDGEELYLRDLKINDLPNLLKWYNNIDDFSLATGVYKPITLKEILERYFKCQSSSKDFFAGIYIRKSGEMIGVLKGWLDCEKDLSAWINSIIIDPGFQRKGYGSKTVNLFIRHVKECCNVKRVYLSVAEENFKGMSFWKQQSFREVKKISKDRDSVSKCKSIVIMCREI”, the “soluble on expression in E. coli” value was “not soluble”. In the case of “MGHHHHHHKVTLPDLKWDFGALEPYISGQINELHYTKHHQTYVNGFNTAVDQFQELSDLLAKEPSPANARKMIAIQQNIKFHGGGFTNHCLFWENLAPESQGGGEPPTGALAKAIDEQFGSLDELIKLTNTKLAGVQGSGWAFIVKNLSNGGKLDVVQTYNQDTVTGPLVPLVAIDAWEHAYYLQYQNKKADYFKAIWNVVNWKEASRRFDAGKI”, the “soluble on expression in E. coli” value is reported as “soluble”. For “MKLYNLKDHNEQVSFAQAVTQGLGKNQGLFFPHDLPEFSLTEIDEMLKLDFVTRSAKILSAFIGDEIPQEILEERVRAAFAFPAPVANVESDVGCLELFHGPTLAFKDFGGRFMAQMLTHIAGDKPVTILTATSGDTGAAVAHAFYGLPNVKVVILYPRGKISPLQEKLFCTLGGNIETVAIDGDFDACQALVKQAFDDEELKVALGLNSANSINISRLLAQICYYFEAVAQLPQETRNQLVVSVPSGNFGDLTAGLLAKSLGLPVKRFIAATNVNDTVPRFLHDGQWSPKATQATLSNAMDVSQPNNWPRVEELFRRKIWQLKELGYAAVDDETTQQTMRELKELGYTSEPHAAVAYRALRDQLNPGEYGLFLGTAHPAKFKESVEAILGETLDLPKELAERADLPLLSHNLPADFAALRKLMMNHQ”, the “soluble on expression in E. coli” value was “soluble”. In the case of “MGSDKIHHHHHHMSELLGLIVDARPLQAHFRIPHTSLLLDTYPFPPKTTAVGMLAGCMGLGEEGFKKLLEKIKYGVIIEDPGEKIEEVSVIYKNPYSPSYPITRVSLYKPRFRMFFAGEERVIEEAYEGLLDPKFVPYMGDSESLFYPGKKRYVEVVDVQEGKEDILRSVIPEVKFKEFVPLRRKVLVPKVYEAPVKFTYKGKSRRAVYGRFIAFSGGYVKLEKKIDVLLFDGEPIATF”, the “soluble on expression in E. coli” value is reported as “not soluble”. For “MGSDKIHHHHHHMTEDNNLGLEFKYLIVNDMDRKFGLWVNTVGYQSIPPDSPYPLKEHPSGYYFNAEKGRVLREYQLVYITKGRGLFSSDSTPERQVCKGRLMVLFPGQWHTYYPLRQTGWTEYYIGFEGPAIDTIVGDAFLSQERQILEVGINEELVSLFSRALEVAEADKISAQQYLSGIVLHMIGMILSISKNKVFEMSDVDQKIEQAKILMNENVSGNIDPEELAMRLNISYSWFRRVFKEYTGYAPAKYFQELKLRKAKQMLVGTSQSVKEISFFLGFQSTEYFFSFFKKRTGLTPLEYRSFGREE”, the “soluble on expression in E. coli” value was “not soluble”. In the case of “MGSSHHHHHHGGTGENLYFQGGSGMAYRHQATDQFHRFLHNPHVVQPDGVDGLPRVKGDQQQWLNTEQWHGYSDTYLQRHMQYPATVELNNPAVNARHDLLYECLGLVYELYGGLAEDLQELHDDPLHPHFHRRIARIKRDRERIATELDKRYAKLHPTVKTVYDAFLVRRYYHLADWIEHVERKRERLINDLSPDVMEKTMRMRGIAEQYLRHLRALEHALYEDPLMGLLGGDRGTNVLDQYTPGELAMLRQKAAYFRNMRRFGANQLDADMHTH”, the “soluble on expression in E. coli” value is reported as “soluble”. For “MGSDKIHHHHHHMRVYFDNNATTRVDDRVLEEMIVFYREKYGNPNSAHGMGIEANLHMEKAREKVAKVLGVSPSEIFFTSCATESINWILKTVAETFEKRKRTIITTPIEHKAVLETMKYLSMKGFKVKYVPVDSRGVVKLEELEKLVDEDTFLVSIMAANNEVGTIQPVEDVTRIVKKKNKETLVHVDAVQTIGKIPFSLEKLEVDYASFSAHKFHGPKGVGITYIRKGVPIRPLIHGGGQERGLRSGTQNVPGIVGAARAMEIAVEELSEAAKHMEKLRSKLVSGLMNLGAHIITPLEISLPNTLSVSFPNIRGSTLQNLLSGYGIYVSTSSACTSKDERLSHVLDAMGVDRRIAQGAIRISLCKYNTEEEVDYFLKKIEEILSFLDLTGNNRR”, the “soluble on expression in E. coli” value was “not soluble”.
